PMC7081908, “Glycan Profiles of gp120 Protein Vaccines from Four Major HIV-1 Subtypes Produced from Different Host Cell Lines under Non-GMP or GMP Conditions” (Journal of Virology, 2020)
Values joined by “and” are separate entries in the source; they are usually repeats but may differ in a detail not shown here. Identical values can stand only once.

Target: IgG-CD4 protein (fusion protein of human CD4 domains 1 and 2 with human IgG1 Fc at the C terminus) (human)
Experiment: BLI; Octet QKe; IgG-CD4 loaded onto protein G sensors at 20 ug/ml in ForteBio kinetics buffer; serial dilutions of gp120 (600 nM to 0.4 nM) in solution; Kd = koff/kon, 1:1 fitting model; two GMP lots of each gp120
Settings: both partners purified

B1: GMP-grade gp120 protein, HIV-1 clade A isolate 92UG037.8 (natural protein)
chain: not shown
  Kd: 5.48 nM and 3.62 nM
